These results are taken from patent US20070089183A1, “Size and/or growth engineering by modulation of the interaction between calmodulin, and brassinosteroid biosynthetic enzymes and orthologs therof” (Washington State University, priority 2005, published 2007).

Positions count from the first letter of the chain named. Names and notes keep the numbering of the source.

One assay has as its system 35S-CaM. The assay is described as follows: 35S-CaM-binding assay. To be noted: purified recombinant protein covering amino acid 517 to the stop codon, 2 μg per lane. The method, then: Total proteins from E. coli expressing pScreen-1b (lane 1) or expressing pScreen-1b-517-561 (lane 2) were stained (left panel) or bound to ^35S-CaM in the presence of Ca^2+ (middle panel) or EGTA (right panel), a Ca^2+ chelator. […] Total proteins from plants expressing the Flag-tagged DWF1 (DWF1-Flag) or wild-type plants (WT) were incubated with antibodies against full-length human CaM1 (anti-CaM1), AtBET10 (anti-AtBET10) or non-immune serum (Non-im.); immunocomplexes were separated on SDS-PAGE and detected with anti-Flag M2 monoclonal antibody. […] Total proteins from E. coli expressing pET32b (lane 1), pET32b-1-349 (lane 2), pET32b-348-518 (lane 3), pScreen-1b (lane 4) or pScreen-1b-517-561 (lane 5) were stained (left) or were bound to ^35S-CaM (right). […] CaM and the peptide-CaM complex is indicated.
To confirm further the CaM-binding ability of DWF1, the positive clone from the library screening was expressed in Escherichia coli and tested for ^35S-CaM binding^15 in the presence of Ca^2+, EGTA, a Ca^2+ chelator, or Mg^2+. […] C-terminal Flag-tagged DWF1 overexpression lines of Arabidopsis were produced to study the DWF1-CAM interaction in vivo. Because of the dynamic nature of the interaction between DWF1 and Ca^2+/CaM, co-immunoprecipitation using a prior in vivo crosslinking strategy^16 was adapted to verify their interaction under physiological conditions.
The CaMBD is typically comprised of a stretch of 12-30 contiguous amino acids that contain a positive net charge and have a propensity to form an amphiphilic α-helix^4. […] A peptide corresponding to 518-539 was synthesized, and its CaM-binding ability was confirmed using PCM6 (ref. 17) in a gel mobility shift assay^15 (FIG. 1e).
Mutants. Three mutants were produced to disrupt the conserved secondary structure of the CaMBD of DWF1 (FIG. 6, Panel B): V531D (M1), aimed at disturbing the hydrophobic surface; KYR521-523DGD (M2, K521, Y522 and R523 are changed to D521, G522 and D523), aimed at changing the net surface charges; and Δ518-539 (M3), a total deletion of the CaMBD. […]

In the next assay the test system is dwf1 null mutant. The assay is described as follows: complementation of dwf1 null mutant, plant phenotype. Conditions: for phenotype rescue of dwf1 mutant: 35S promoter-driven construct in homozygous dwf1 knockout. It counts as in vivo, Arabidopsis. The text has this: To circumvent the infertility problem associated with homozygous dwf1 mutants^6,7, a heterozygous dwf1 line (SALK—006932, ref. 23) was chosen for transformation. A T-DNA insert is shown in FIG. 6, panel A, and detailed characterizations confirmed that it is a heterozygous dwf1 null mutation line (FIG. 2a, b).
Specifically, heterozygous SALK—006932 plants were transformed with a 35S::DWF1 construct (FIG. 6, panel B). […] Using polymerase chain reaction (PCR) analysis, one dwarf and seven normal plants were identified that carried at least one copy of the 35S::DWF1 complementary construct and were homozygous knockout at the endogenous DWF1 loci. The dwarfism in the dwarf plant was confirmed to be caused by a failure in expression of the transgene (FIG. 2c, d). The overexpressed (numbers 1, 2, 3, 8) and equally expressed (numbers 5, 7) lines grew like the wild-type, confirming a previous report^6. […] At the adult stage, 7 out of the 8 complemented lines reached similar levels of height and fertility as that of wild-type plants (FIG. 3c).
Mutants. Three mutants were produced to disrupt the conserved secondary structure of the CaMBD of DWF1 (FIG. 6, Panel B): V531D (M1), aimed at disturbing the hydrophobic surface; KYR521-523DGD (M2, K521, Y522 and R523 are changed to D521, G522 and D523), aimed at changing the net surface charges; and Δ518-539 (M3), a total deletion of the CaMBD. […] A similar strategy was used to deliver the mutant dwf1 complimentary constructs (FIG. 6, Panel B) into the heterozygous dwf1 plants. Visual checks identified 18, 11 and 19 dwarf plants in the T1 population carrying 35S::DWF1(V531D), 35S::DWF1(KYR521-523DGD) and 35S::DWF1(Δ518-539) complimentary constructs, respectively. These plants were confirmed to carry at least one copy of the transgene and the homozygous knockout at the endogenous DWF1 loci.
To ensure a reliable comparison of the complementary effects of normal DWF1 and the three mutants, T2 plants with similar expression levels were compared (FIG. 3b-d). […] Seeds were produced in most of the slightly shorter siliques of cM1 plants (FIG. 3b, c). […] The dwarf phenotypes of cM1, cM2, cM3 and the dwf1 mutant were rescued by exogenous application of brassinolide (data not shown).

Assay [1] relates to DWF1 function (sitosterol/isofucosterol levels). The assay is described as follows: GC-MS sterol analysis of complemented plants. To be noted: endogenous sitosterol/isofucosterol by GC-MS, six- to seven-week-old plants. It counts as in vivo, Arabidopsis. The method, then:
DWF1 catalyses the conversion of isofucosterol to sitosterol and 24-methylenecholesterol to campesterol^6,7. The endogenous levels of sitosterol/isofiicosterol or campesterol/24-methylenecholesterol in wild-type, dwarf and complemented plants were analysed using gas chromatography-mass spectrometry (GC-MS) to monitor the function of the complementing DWF1, DWF1(V531D), DWF1(KYR521-523DGD) and DWF1(Δ518-539) carried in cW, cM1, cM2 and cM3 plants, respectively.
Sterol analysis. Six- to seven-week-old greenhouse-grown plants were harvested and ground into a fine powder in liquid nitrogen. Aliquots of 100 mg ground material were sponified in 1 N NaOH, 70% ethanol at 70° C. for 2 h. The sterols were extracted three times with 500 μl hexane, and the combined extracts were dried and dissolved in 100 μl of methylene chloride. GC-MS analyses were conducted on an Agilent 6890 GC system with 5973N mass selective detector. A 1 μl aliquot of methylene chloride extract containing the underivatized sterols was loaded by cool on column injection on a Zebron (Phenomenex) ZB-5 column, 30 m×0.25 mm internal diameter with 0.25 μm film thickness. Chromatography was accomplished using He as the carrier gas at a flow rate of 0.7 ml min^−1. The column oven temperature was programmed to run from 40° C. to 300° C. increased at 20° C. min^−1, with a hold for 10 min at 300° C. Identification and quantification of sterols was accomplished by comparison to authentic standards based on the retention time, peak area and mass fragmentation pattern.

The test system of another assay is Ca^2+/CaM. The assay is described as follows: gel mobility shift assay of BR biosynthetic proteins. Format: binding, potato. To be noted: FIG. 5. The text has this: PCM1: potato calmodulin 1; PCM6: potato calmodulin 6. Sequences of respective CaMBD are also shown: N-DWF4 (SEQ ID NO:18); C-DWF4 (SEQ ID NO:19); CPD (SEQ ID NO:17); and DWF5 (SEQ ID NO:20).
DWF1Ca^2+ is an important second messenger and an integral part of the cellular signalling system in plants^5,29. Applicants were thus prompted to survey the CaM-binding properties of other proteins involved in brassinosteroid biosynthesis.

B1: Δ518-539: Arabidopsis thaliana DWF1 protein Δ518-539 mutant, a total deletion of the CaMBD (protein, listed as Arabidopsis thaliana)
chain: MSDLQTPLVRPKRKKTWVDYFVKFRWIIVIFIVLPFSATFYFLIYLGDMWSESKSFEKRQKEHDENVKKVIKRLKGRDASKDGLVCTARKPWIAVGMRNVDYKRARHFEVDLGEFRNILEINKEKMTARVEPLVNMGQISRATVPMNLSLAVVAELDDLTVGGLINGYGIEGSSHIYGLFADTVEAYEIVLAGGELVRATRDNEYSDLYYAIPWSQGTLGLLVAAEIRLIKVKEYMRLTYIPVKGDLQALAQGYIDSFAPKDGDKSKIPDFVEGMVYNPTEGVMMVGTYASKEEAKKKGNKINNVGWWFKPWFYQHAQTALKKGQFVEYIPTREYYHRHTRCLYWEGKLILPFGDQFWFRYLLGWLMPPKVSLLKATQGEAIRNYYHDMHVIQDMLVPLYKVGDALEWVHREMEVYPIWLCPHKLFKQPIKGQIYPEPGFEYENRQGDTEDAQMYTDVGVYYAPGCVLRGEEFDGSEAVRRMEKWLIENHGFQPQYAVSELDEKSFWRMFNGELYEEKTEKEVREAEQAHLETAYAEAD
Take B1: the CaM-binding ability entry in the assay on 35S-CaM was “undetectable”. Moreover, the “phenotype rescue of dwf1 mutant” value in the assay on dwf1 null mutant is reported as “grew like the uncomplemented dwf1 mutants”. The “recovery of DWF1 function” value in assay [1] is “almost non-existent”.

B2: DWF5: Arabidopsis DWF5 (AT1G50430), sterol Δ7 reductase (protein, listed as Arabidopsis thaliana)
chain: MAETVHSPIVTYASMLSLLAFCPPFVILLWYTMVHQDGSVTQTFGFFWENGVQGLINIWPRPTLIAWKIIFCYGAFEAILQLLLPGKRVEGPISPAGNRPVYKANGLAAYFVTLATYLGLWWFGIFNPAIVYDHLGEIFSALIFGSFIFCVLLYIKGHVAPSSSDSGSCGNLIIDFYWGMELYPRIGKSFDIKVFTNCRFGMMSWAVLAVTYCIKQYEINGKVSDSMLVNTILMLVYVTKFFWWEAGYWNTMDIAHDRAGFYICWGCLVWVPSVYTSPGMYLVNHPVELGTQLAIYILVAGILCIYINYDCDRQRQEFRRTNGKCLVWGRAPSKIVASYTTTSGETKTSLLLTSGWWGLARHFHYVPEILSAFFWTVPALFDNFLAYFYVIFLTLLLFDRAKRDDDRCRSKYGKYWKLYCEKVKYRIIPGIY
As to B2, in the assay with Ca^2+/CaM, the “Ca^2+/CaM binding” value is “Ca^2+/CaM-binding proteins”.

B3: DWF4: Arabidopsis brassinosteroid biosynthetic enzyme DWF4 (AT3G50660) (protein, listed as Arabidopsis thaliana)
chain: MFETEHHTLLPLLLLPSLLSLLLFLILLKRRNRKTRFNLPPGKSGWPFLGETIGYLKPYTATTLGDFMQQHVSKYGKIYRSNLFGEPTIVSADAGLNRFILQNEGRLFECSYPRSIGGILGKWSMLVLVGDMHRDMRSISLNFLSHARLRTILLKDVERHTLFVLDSWQQNSIFSAQDEAKKFTFNLMAKHIMSMDPGEEETEQLKKEYVTFMKGVVSAPLNLPGTAYHKALQSRATILKFIERKMEERKLDIKEEDQEEEEVKTEDEAEMSKSDHVRKQRTDDDLLGWVLKHSNLSTEQILDLILSLLFAGHETSSVAIALAIFFLQACPKAVEELREEHLEIARAKKELGESELNWDDYKKMDFTQCVINETLRLGNVVRFLHRKALKDVRYKGYDIPSGWKVLPVISAVHLDNSRYDQPNLFNPWRWQQQNNGASSSGSGSFSTWGNNYMPFGGGPRLCAGSELAKLEMAVFIHHLVLKFNWELAEDDQPFAFPFVDFPNGLPIRVSRIL
Regarding B3, the “Ca^2+/CaM binding” value in the assay with Ca^2+/CaM is listed as “Ca^2+/CaM-binding proteins”.

B4: DWF1: wild-type Arabidopsis DWARF1 (At3g19820), expressed from 35S::DWF1 in cW plants (protein, listed as Arabidopsis thaliana)
chain: MSDLQTPLVRPKRKKTWVDYFVKFRWIIVIFIVLPFSATFYFLIYLGDMWSESKSFEKRQKEHDENVKKVIKRLKGRDASKDGLVCTARKPWIAVGMRNVDYKRARHFEVDLGEFRNILEINKEKMTARVEPLVNMGQISRATVPMNLSLAVVAELDDLTVGGLINGYGIEGSSHIYGLFADTVEAYEIVLAGGELVRATRDNEYSDLYYAIPWSQGTLGLLVAAEIRLIKVKEYMRLTYIPVKGDLQALAQGYIDSFAPKDGDKSKIPDFVEGMVYNPTEGVMMVGTYASKEEAKKKGNKINNVGWWFKPWFYQHAQTALKKGQFVEYIPTREYYHRHTRCLYWEGKLILPFGDQFWFRYLLGWLMPPKVSLLKATQGEAIRNYYHDMHVIQDMLVPLYKVGDALEWVHREMEVYPIWLCPHKLFKQPIKGQIYPEPGFEYENRQGDTEDAQMYTDVGVYYAPGCVLRGEEFDGSEAVRRMEKWLIENHGFQPQYAVSELDEKSFWRMFNGELYEECRKKYRAIGTFMSVYYKSKKGRKTEKEVREAEQAHLETAYAEAD
Turning to B4, in the assay with dwf1 null mutant, the “phenotype rescue of dwf1 mutant” value is “completely rescue”. Moreover, the “recovery of DWF1 function” value in assay [1] was “recovered to a level comparable to that in wild-type plants”.

B5: V531D: Arabidopsis thaliana DWF1 protein V531D mutant, disturbing the hydrophobic surface of the CaMBD (protein, listed as Arabidopsis thaliana)
chain: B4 chain with V531D
Take B5: in the assay on 35S-CaM, the CaM-binding ability entry is given as “markedly decreased”. Moreover, the “phenotype rescue of dwf1 mutant” value with dwf1 null mutant was “some degree of phenotype rescue”. The “height of flowering stems relative to the wild-type plant” value with dwf1 null mutant (T2 plants with similar expression levels) is “up to 40%”. In assay [1], the “recovery of DWF1 function” value is on record as “restored to some extent”.

B6: KYR52-5231DGD: Arabidopsis thaliana DWF1 protein K521D, Y522G, R523D triple mutant (protein, listed as Arabidopsis thaliana)
chain: B4 chain with K521D, Y522G, R523D
On to B6, for which, in the assay on 35S-CaM, the CaM-binding ability entry is “undetectable”. Besides, in the assay on dwf1 null mutant, the “phenotype rescue of dwf1 mutant” value is given as “very slight phenotypic rescue”. In addition, in assay [1], the “recovery of DWF1 function” value is on record as “almost non-existent”.
